Laboratory results as given in paper PMC10192418, “High-affinity peptides developed against calprotectin and their application as synthetic ligands in diagnostic assays” (Nature Communications, 2023).

T1: B-RCAL (BÜHLMANN recombinant calprotectin; His6-linker-S100A9-linker-S100A8)
T1 chain: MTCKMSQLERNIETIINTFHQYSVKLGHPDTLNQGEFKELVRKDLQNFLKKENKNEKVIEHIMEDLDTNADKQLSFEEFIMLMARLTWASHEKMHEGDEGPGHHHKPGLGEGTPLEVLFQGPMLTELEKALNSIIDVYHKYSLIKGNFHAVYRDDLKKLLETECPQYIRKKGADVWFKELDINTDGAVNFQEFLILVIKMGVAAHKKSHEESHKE

T2: B-RCAL (BÜHLMANN recombinant calprotectin; His6-linker-S100A9-linker-S100A8) (human)
T2 chain: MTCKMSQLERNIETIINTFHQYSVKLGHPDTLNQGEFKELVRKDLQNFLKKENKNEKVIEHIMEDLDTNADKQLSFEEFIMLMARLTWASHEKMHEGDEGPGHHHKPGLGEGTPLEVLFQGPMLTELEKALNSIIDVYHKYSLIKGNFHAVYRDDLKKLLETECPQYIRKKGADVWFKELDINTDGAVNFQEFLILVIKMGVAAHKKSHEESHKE


What was measured:
[1] = molecular target: T1, B-RCAL (BÜHLMANN recombinant …); experiment: fluorescence polarisation; details: chain shown with the change, in the presence of calcium ions, three independent measurements
[2] = molecular target: T2, B-RCAL (BÜHLMANN recombinant …); experiment: FP; details: modification not given

Binder | Kd [2] | other results
RCPECVAFPMFQSHWYSG [peptide 3 isomer 1 (dumbbell shaped, double-bridged) C13S; C17S] | – | Kd ([1]; Cys1-Cys2 chemically bridged): 16.9 nM
RSPESVAFPMFQSHWYSA [G18A] | 31 nM | –
RSPASVAFPMFQSHWYSG [E4A] | 26 nM | –
RSPESVAFPMFQCHWYCG [peptide 3 isomer 1 (dumbbell shaped, double-bridged) C2S; C5S] | – | Kd ([1]; Cys3-Cys4 chemically bridged): 17.9 nM
RSPESVAFPMFQSHAYSG [W15A] | 24 nM | –
RSPESVAFAMFQSHWYSG [P9A] | 30 nM | –
